According to publication PMC10491607 (Cell Discovery, 2023):

Biological target: T1, Angiotensin-converting enzyme 2 (ACE2) (UniProt Q9BYF1 18-805, glycosylation moieties seen in the map)
T1 construct: source: co-transfected in HEK-293T cells for the current recordings
Assay: cryo-EM structure; ACE2-SIT1 complex bound to Pro, 3.3 Å overall (transmembrane domain 3.7 Å local)
Details: both partners purified

T1 sequence (Q9BYF1 18-805): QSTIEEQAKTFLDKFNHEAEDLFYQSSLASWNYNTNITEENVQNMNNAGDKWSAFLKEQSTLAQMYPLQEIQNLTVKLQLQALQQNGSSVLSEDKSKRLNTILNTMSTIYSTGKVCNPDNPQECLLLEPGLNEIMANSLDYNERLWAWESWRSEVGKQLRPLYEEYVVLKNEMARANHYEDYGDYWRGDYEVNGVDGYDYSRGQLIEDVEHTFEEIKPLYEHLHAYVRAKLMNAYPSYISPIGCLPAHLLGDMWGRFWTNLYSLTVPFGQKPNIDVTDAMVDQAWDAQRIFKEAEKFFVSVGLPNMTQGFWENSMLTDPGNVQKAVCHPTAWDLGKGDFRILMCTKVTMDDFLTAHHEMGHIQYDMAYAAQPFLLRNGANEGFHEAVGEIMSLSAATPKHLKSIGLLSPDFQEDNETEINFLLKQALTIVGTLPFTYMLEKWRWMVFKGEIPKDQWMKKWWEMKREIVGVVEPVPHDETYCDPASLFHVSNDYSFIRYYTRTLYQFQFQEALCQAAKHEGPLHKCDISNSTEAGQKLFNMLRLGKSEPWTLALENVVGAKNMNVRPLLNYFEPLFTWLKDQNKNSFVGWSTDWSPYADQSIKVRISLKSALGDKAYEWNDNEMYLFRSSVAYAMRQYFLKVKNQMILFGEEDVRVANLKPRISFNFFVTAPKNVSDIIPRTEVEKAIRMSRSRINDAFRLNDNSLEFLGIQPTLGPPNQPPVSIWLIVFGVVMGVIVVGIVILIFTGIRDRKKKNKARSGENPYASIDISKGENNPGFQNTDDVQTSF

B1: SIT1 (SLC6A20) (natural protein)
chain: MEKARPLWANSLQFVFACISYAVGLGNVWRFPYLCQMYGGGSFLVPYIIMLIVEGMPLLYLELAVGQRMRQGSIGAWRTISPYLSGVGVASVVVSFFLSMYYNVINAWAFWYLFHSFQDPLPWSVCPLNGNHTGYDEECEKASSTQYFWYRKTLNISPSLQENGGVQWEPALCLLLAWLVVYLCILRGTESTGKVVYFTASLPYCVLIIYLIRGLTLHGATNGLMYMFTPKIEQLANPKAWINAATQIFFSLGLGFGSLIAFASYNEPSNNCQKHAIIVSLINSFTSIFASIVTFSIYGFKATFNYENCLKKVSLLLTNTFDLEDGFLTASNLEQVKGYLASAYPSKYSEMFPQIKNCSLESELDTAVQGTGLAFIVYTEAIKNMEVSQLWSVLYFFMLLMLGIGSMLGNTAAILTPLTDSKIISSHLPKEAISGLVCLVNCAIGMVFTMEAGNYWFDIFNDYAATLSLLLIVLVETIAVCYVYGLRRFESDLKAMTGRAVSWYWKVMWAGVSPLLIVSLFVFYLSDYILTGTLKYQAWDASQGQLVTKDYPAYALAVIGLLVASSTMCIPLAALGTFVQRRLKRGDADPVA
notes: also called WT; source: co-transfected in HEK-293T cells for the current recordings
binding result: binds
